Blank lines part the entries; values can stand above or below the molecule they belong to.
Tests used:
Human Trop-2 = target: T1, Human Trop-2 (Homo sapiens, UniProt P09758); test: Binding to human Trop-2 measured by surface plasmon resonance (SPR)
T1 sequence (P09758 27-323): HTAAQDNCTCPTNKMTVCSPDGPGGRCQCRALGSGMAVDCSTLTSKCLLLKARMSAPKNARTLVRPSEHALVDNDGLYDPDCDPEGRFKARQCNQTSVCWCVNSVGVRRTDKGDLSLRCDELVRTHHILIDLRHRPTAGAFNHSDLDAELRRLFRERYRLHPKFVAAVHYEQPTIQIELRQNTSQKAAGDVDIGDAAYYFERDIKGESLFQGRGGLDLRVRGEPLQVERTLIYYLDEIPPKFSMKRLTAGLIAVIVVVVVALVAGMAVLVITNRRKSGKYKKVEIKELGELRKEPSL
Excerpt: (§1) To engineer an anti-mouse Trop-2 ADC binding to mouse Trop-2 with proprieties similar to SG, we selected a commercially available anti-mouse Trop-2 rabbit antibody (Sino Biological, #50922-R064) and murinized it to obtain an anti-mouse Trop-2 IgG2a (Rab64/mG2a/mKap). Rab64 mAb was then coupled to CL2A linker/SN-38 payload at a high DAR (˜8-9).

Mouse Trop-2 = target: T2, Mouse Trop-2 (Mus musculus, UniProt Q8BGV3); test: Binding to mouse Trop-2 measured by surface plasmon resonance (SPR)
T2 sequence (Q8BGV3 25-317): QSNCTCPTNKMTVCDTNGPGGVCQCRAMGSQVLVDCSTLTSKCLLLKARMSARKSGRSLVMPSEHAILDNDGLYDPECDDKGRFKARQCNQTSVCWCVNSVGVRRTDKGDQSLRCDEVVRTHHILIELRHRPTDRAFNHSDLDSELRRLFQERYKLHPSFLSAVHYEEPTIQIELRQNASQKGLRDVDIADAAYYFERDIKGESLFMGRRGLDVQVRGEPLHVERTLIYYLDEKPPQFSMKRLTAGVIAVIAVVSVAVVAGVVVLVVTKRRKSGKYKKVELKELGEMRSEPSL
Excerpt: as §1

Human Trop-2 (human) = Human Trop-2 (human) (UniProt P09758); test: SPR

Kd (Human Trop-2): 0.328 nM
KD (Mouse Trop-2): No binding detected
Molecule: hRS7-hIgG1k: humanized monoclonal antibody hRS7 IgG1κ, which binds to Trop-2

Kd (Human Trop-2 (human)): 0.328 nM
koff (Human Trop-2 (human)): 0.000144 s⁻¹
kon (Human Trop-2 (human)): 440000 M⁻¹ s⁻¹
B1: hRS7-hIgG1k (antibody, INN chains, looked up, V domains shown)
VH: QVQLQQSGSELKKPGASVKVSCKASGYTFTNYGMNWVKQAPGQGLKWMGWINTYTGEPTYTDDFKGRFAFSLDTSVSTAYLQISSLKADDTAVYFCARGGFGSSYWYFDVWGQGSLVTVSS
VL: DIQLTQSPSSLSASVGDRVSITCKASQDVSIAVAWYQQKPGKAPKLLIYSASYRYTGVPDRFSGSGSGTDFTLTISSLQPEDFAVYYCQQHYITPLTFGAGTKVEIKR

Kd (Human Trop-2 (human)): 0.361 nM
koff (Human Trop-2 (human)): 0.000153 s⁻¹
kon (Human Trop-2 (human)): 423000 M⁻¹ s⁻¹
B2: Sacituzumab Govitecan (SG, Trodelvy) (antibody, INN chains, looked up, IgG1, V domains shown)
VH: B1 VH
VL: B1 VL
modifications: CL2A-SN-38, DAR 7.5

Reference: patent publication US20250249115A1, “COMBINATION THERAPY FOR TREATING TUMOR ANTIGEN EXPRESSING CANCERS” (Gilead Sciences, Inc., priority 2022, published 2025)
